Usually Kd stands for a measure of binding affinity in units of concentration. For orientation: koff means the rate constant with which the complex falls apart. Low values mean a long-lived complex, high ones a short-lived complex. In general, kon refers to the rate constant with which the complex forms.

The assay has as its target T1, CMVpp65_(495-503)/HLA-A*02:01 single-chain trimer (SCT) protein (Homo sapiens HLA-A*02:01 (BC019236) and …, UniProt P06725;P61769;Q8WUX3, stabilised).
T1 construct: source: HEK293F, transfected, purified from culture supernatant (Ni-NTA)
Kind of assay: BLI; Abs (mouse IgG2a/κ) immobilised, soluble pMHC SCT as analyte; pH 7.4; Octet QKe; global fit, 1:1 Langmuir model. Particulars: both partners purified. For orientation: BLI is a label-free optical method that tracks binding on a fibre tip over time.

B1: H9 TCR-like antibody in mouse IgG2a/κ format (antibody, V domains shown)
VH: EVQLVQSGAEVKKPGSSVKVSCKASGGTFSSYAISWVRQAPGQGLEWMGGIIPIFGTANYAQKFQGRVTITADESTSTAYMELSSLRSEDTAVYYCARGDLYYYDSSGYPRYYFDYWGQGTLVTVSS
VL: ETTLTQSPGTLSLSPGERATLSCRASQSVSSSYLAWYQQKPGQAPRLVIYGASSRATGIPDRFSGSGSGTDFTLTISRLEPEDFAVYYCQHYSTSPGFTFGQGTKLEIR
notes: also called parental H9; H9 Ab
In the case of B1, the Kd stood at 348 ± 33 nM, the koff is 0.0022 s⁻¹ and the association rate constant (kon) was found to be 6300 M⁻¹ s⁻¹.

The values above are taken from article PMC7956451 (International Journal of Molecular Sciences, 2021).
